Sequences and labels used below:
B1: POLD4 (parent)
chain: ITDSYPVVKRREGPAGHSKGELAP
B2: ZNF263 (parent)
chain: PEASHLRFRRFRFQEAAGPREALS
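Further: lentivirally expressed fusions sorted by FACS into six bins by GFP to DsRed ratio, PSI derived from sequencing read proportions per bin multiplied by bin number.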

In one series the parent is B1. The series can be described thus: protein stability index of a GFP-peptide fusion (GPS, HEK-293T) (PSI 1-6); higher = more stable. The note with it: c terminus: a fixed tail appended.
With ITDSYPVVKRREGPAGHSKGEGAP, the protein stability index stood at 2.91. On the same count and under the same terms, then ITDSYPVVKRREGPAGHSKGEVAP, with 3.42; and ITDSYPVVKRREGPAGHSKGERAP, with 2.57; and ITDSYPVVKRREGPAGHSKGECAP, with 3.26.

Take ITDSYPVVKRREGPAGHSKGEHAP: the protein stability index was found to be 3.2. Same read-out and setting: then ITDSYPVVKRREGPAGHSKGEDAP, with 3.81; and ITDSYPVVKRREGPAGHSKGEQAP, with 3.89; and ITDSYPVVKRREGPAGHSKGEEAP, with 3.94.

As to ITDSYPVVKRREGPAGHSKGEFAP, the protein stability index turned out to be 3.27.

ITDSYPVVKRREGPAGHSKGEAAP: the protein stability index was found to be 3.62. Still for that read-out and setting: then ITDSYPVVKRREGPAGHSKGEMAP, with 3.21; and ITDSYPVVKRREGPAGHSKGETAP, with 3.21. Still for that read-out and setting: then ITDSYPVVKRREGPAGHSKGESAP, with 3.27; and ITDSYPVVKRREGPAGHSKGEPAP, with 3.31. As for ITDSYPVVKRREGPAGHSKGENAP, the protein stability index amounted to 3.31. Take ITDSYPVVKRREGPAGHSKGEIAP: the protein stability index is 3.1. Still for that read-out and setting: then ITDSYPVVKRREGPAGHSKGEYAP, with 2.52. Still for that read-out and setting: then ITDSYPVVKRREGPAGHSKGEKAP, with 3.71; and ITDSYPVVKRREGPAGHSKGEWAP, with 3.04.

For the variant ITDSYPVVKRREGPAGHSKGELAN, the protein stability index amounted to 3.62.

Regarding ITDSYPVVKRREGPAGHSKGELAC, the protein stability index was found to be 3.13. In the case of ITDSYPVVKRREGPAGHSKGELAR, the protein stability index is 2.77. Still for that read-out and setting: then ITDSYPVVKRREGPAGHSKGELAV, with 2.19; and ITDSYPVVKRREGPAGHSKGELAF, with 4.06. On the same count and under the same terms, then ITDSYPVVKRREGPAGHSKGELAY, with 2.38; and ITDSYPVVKRREGPAGHSKGELAI, with 1.97; and ITDSYPVVKRREGPAGHSKGELAA, with 2.56.

In the case of ITDSYPVVKRREGPAGHSKGELAQ, the protein stability index is 4.1.

For ITDSYPVVKRREGPAGHSKGELAE, the protein stability index came to 3.66. Consider ITDSYPVVKRREGPAGHSKGELAM, for which the protein stability index came to 2.89. Take ITDSYPVVKRREGPAGHSKGELAD: the protein stability index came out at 2.5. For ITDSYPVVKRREGPAGHSKGELAS, the protein stability index was 3.93. Same read-out and setting: then ITDSYPVVKRREGPAGHSKGELAW, with 2.73; and ITDSYPVVKRREGPAGHSKGELAL, with 3.56. Still for that read-out and setting: the value for ITDSYPVVKRREGPAGHSKGSLAP was 2.89; that for ITDSYPVVKRREGPAGHSKGTLAP was 2.75; that for ITDSYPVVKRREGPAGHSKGVLAP was 3.03. Same read-out and setting: then ITDSYPVVKRREGPAGHSKGRLAP, with 2.13. As for ITDSYPVVKRREGPAGHSKGWLAP, the protein stability index was determined as 2.84. On to ITDSYPVVKRREGPAGHSKGQLAP, for which the protein stability index came out at 4.12. On the same count and under the same terms, then ITDSYPVVKRREGPAGHSKGELRP, with 3.01; and ITDSYPVVKRREGPAGHSKGELTP, with 2.68. With ITDSYPVVKRREGPAGHSKGELMP, the protein stability index turned out to be 2.1. On to ITDSYPVVKRREGPAGHSKGELDP, for which the protein stability index was determined as 2.69. Same read-out and setting: the value for ITDSYPVVKRREGPAGHSKGELWP was 3.43. Still for that read-out and setting: then ITDSYPVVKRREGPAGHSKGELYP, with 3.21; and ITDSYPVVKRREGPAGHSKGELPP, with 2.96. As for ITDSYPVVKRREGPAGHSKGELLP, the protein stability index was found to be 3.2. On the same count and under the same terms, then ITDSYPVVKRREGPAGHSKGELQP, with 3.31.

On to ITDSYPVVKRREGPAGHSKGELSP, for which the protein stability index was determined as 3.59. With ITDSYPVVKRREGPAGHSKGELVP, the protein stability index was determined as 2.8.

With ITDSYPVVKRREGPAGHSKGELEP, the protein stability index was found to be 3.21.

Turning to ITDSYPVVKRREGPAGHSKGELNP, the protein stability index was 3.05. The same measure, in the same setting: the value for ITDSYPVVKRREGPAGHSKGELFP was 3.27.

As to ITDSYPVVKRREGPAGHSKGELHP, the protein stability index was found to be 3.

On to ITDSYPVVKRREGPAGHSKGELGP, for which the protein stability index is 2.68. The same measure, in the same setting: the value for ITDSYPVVKRREGPAGHSKGELIP was 3.24; that for ITDSYPVVKRREGPAGHSKGELKP was 3.65.

Another series covers variants of B2. Described as above. The note with it: c terminus: a fixed tail appended.
As to PEASHLSFRRFRFQEAAGPREALS, the protein stability index amounted to 2.68. PEASHLTFRRFRFQEAAGPREALS: the protein stability index turned out to be 3.66. The same measure, in the same setting: the value for PEASHLLFRRFRFQEAAGPREALS was 2.08; that for PEASHLDFRRFRFQEAAGPREALS was 2.78. The same measure, in the same setting: the value for PEASHLFFRRFRFQEAAGPREALS was 2.28; that for PEASHLCFRRFRFQEAAGPREALS was 2.5; that for PEASHLEFRRFRFQEAAGPREALS was 3.26.

Consider PEASHLVFRRFRFQEAAGPREALS, for which the protein stability index worked out at 2.65. Same read-out and setting: the value for PEASHLGFRRFRFQEAAGPREALS was 3.45; that for PEASHLMFRRFRFQEAAGPREALS was 2.84; that for PEASHLIFRRFRFQEAAGPREALS was 1.8. Still for that read-out and setting: then PEASHLQFRRFRFQEAAGPREALS, with 2.75; and PEASHLHFRRFRFQEAAGPREALS, with 2.93; and PEASHLKFRRFRFQEAAGPREALS, with 2.92. Take PEASHLPFRRFRFQEAAGPREALS: the protein stability index worked out at 2.35.

As for PEASHLNFRRFRFQEAAGPREALS, the protein stability index was found to be 3.08. The same measure, in the same setting: then PEASHLAFRRFRFQEAAGPREALS, with 3.14. Still for that read-out and setting: then PEAHHLRFRRFRFQEAAGPREALS, with 2.04; and PEACHLRFRRFRFQEAAGPREALS, with 2.87.

As for PEALHLRFRRFRFQEAAGPREALS, the protein stability index stood at 1.83. In the case of PEAQHLRFRRFRFQEAAGPREALS, the protein stability index came to 2.19.

With PEAFHLRFRRFRFQEAAGPREALS, the protein stability index stood at 1.87.

On to PEAIHLRFRRFRFQEAAGPREALS, for which the protein stability index was 1.7. Same read-out and setting: the value for PEAMHLRFRRFRFQEAAGPREALS was 3.15. On the same count and under the same terms, then PEAKHLRFRRFRFQEAAGPREALS, with 2.04; and PEAPHLRFRRFRFQEAAGPREALS, with 3.78; and PEATHLRFRRFRFQEAAGPREALS, with 2.76. Still for that read-out and setting: then PEAAHLRFRRFRFQEAAGPREALS, with 2.4; and PEANHLRFRRFRFQEAAGPREALS, with 2.8.

For the variant PEAGHLRFRRFRFQEAAGPREALS, the protein stability index was determined as 2.76. On the same count and under the same terms, the value for PEARHLRFRRFRFQEAAGPREALS was 2.19; that for PEADHLRFRRFRFQEAAGPREALS was 2.92; that for PEAEHLRFRRFRFQEAAGPREALS was 2.97. For PEAYHLRFRRFRFQEAAGPREALS, the protein stability index was 2.83.

For the variant PEAWHLRFRRFRFQEAAGPREALS, the protein stability index turned out to be 3.12. Still for that read-out and setting: then PEAVHLRFRRFRFQEAAGPREALS, with 1.93.
